Consider one molecule from patent publication US20190328837A1 (Stanford University, published 2019).

The target in assay [1] is T1, wild-type CNTFR-Fc (human, UniProt P26992 23-342).
T1 construct: also called wtCNTFR-Fc; not shown: Fc domain; captured with anti-mouse Fc antibody
T1 sequence: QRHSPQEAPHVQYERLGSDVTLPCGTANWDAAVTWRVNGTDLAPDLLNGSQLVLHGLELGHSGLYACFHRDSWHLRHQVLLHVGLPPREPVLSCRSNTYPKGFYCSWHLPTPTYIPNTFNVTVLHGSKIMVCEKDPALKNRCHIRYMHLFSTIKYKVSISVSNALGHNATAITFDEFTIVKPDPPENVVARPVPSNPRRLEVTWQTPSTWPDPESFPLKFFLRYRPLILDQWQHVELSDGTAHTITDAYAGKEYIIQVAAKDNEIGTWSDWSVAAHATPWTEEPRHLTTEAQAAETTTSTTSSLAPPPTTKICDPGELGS
The assay can be described thus: cell-free ELISA, HIS-tagged soluble CLCF1 titrated against 2 nM CNTFR-Fc, anti-HIS capture, HRP anti-mouse detection. The procedure:
(§1) 96-well plates were coated with 10 μg/mL of anti-HIS antibody overnight and blocked with 5% milk for 1 h. The plates were then washed twice with BPBS. Different concentrations of soluble constructs of HIS-tagged CLCF1 variants were incubated with 2 nM CNTFR-Fc in BPBS for 12 h at room temperature. The mixture was then added to 96-well plates coated with anti-HIS antibody for 1 h followed by washing with BPBS twice. Subsequently, the wells were incubated with 1:1000 diluted HRP conjugated anti-mouse antibody for 1 h at room temperature then washed four times with PBS. 1-Step Ultra TMB ELISA (Thermo Fisher Scientific) was used for the readout detected using a plate reader (Tecan).
A general note: An ELISA detects its analyte on a solid surface through an enzyme-linked reagent.

Assay [2] has as its target T1, wild-type CNTFR-Fc. The assay can be described thus: cell-free ELISA: HIS-tagged CLCF1 constructs with 2 nM CNTFR-Fc, captured by anti-HIS, detected by anti-mouse HRP; FRR-CLCF1 parent, no added mutation. As for the experimental part: as §1
In assay [3] the target is T1, wild-type CNTFR-Fc. Put plainly: sandwich ELISA, soluble CLCF1 titrated against 2 nM CNTFR-Fc, apparent Kd. The procedure:
(§2) The CLCF1 variants isolated from screening were cloned into the pET28b bacterial expression plasmid and expressed and purified. […] A sandwich ELISA was performed using an anti-mouse Fc antibody as a capturing agent for wtCNTFR-Fc, followed by an anti-CLCF1 antibody as a detection agent for the bound complex. […] ELISA was also used to measure binding interactions with the gp130 and LIFR beta receptors.
(§3) To measure the solution-phase binding interaction between the CLCF1 constructs and CNTFR, different concentrations of soluble, recombinant CLCF1 variants and wtCLCF1 were incubated with 2 nM CNTFR-Fc in BPBS for 12 h at room temperature. The mixture was then added to 96-well plates coated with anti-mouse-Fc antibody for 1 h followed by washing with BPBS twice. Subsequently, the wells were incubated with 1:1000 diluted anti-CLCF1 rabbit antibody for 2 h at room temperature then washed four times with BPBS. The wells were incubated with a 1:1000 diluted HRP conjugated anti-rabbit antibody for 2 h at room temperature, and washed four times with BPBS. 1-Step Ultra TMB ELISA was used for the readout, which was measured using a plate reader (Tecan).

Assay [4] has as its target T1, wild-type CNTFR-Fc. The assay can be described thus: sandwich ELISA, soluble CLCF1 titrated against 2 nM CNTFR-Fc, anti-mouse-Fc capture, anti-CLCF1 detection. As for the experimental part:
as §2, §3

Assay [5] addresses T1, wild-type CNTFR-Fc. Put plainly: sandwich ELISA: soluble CLCF1 incubated with CNTFR-Fc, captured by anti-mouse Fc, detected by anti-CLCF1; sandwich ELISA, anti-mouse Fc capture, anti-CLCF1 detection. As for the experimental part: as §2, §3

B1: recombinant soluble FRR-CLCF1 (L86F, Q96R, H148R) (ligand)
chain: LNRTGDPGPGPSIQKTYDLTRYLEHQLRSLAGTYLNYLGPPFNEPDFNPPRLGAETLPRATVDLEVWRSLNDKLRLTQNYEAYSHFLCYLRGLNRRAATAELRRSLAHFCTSLQGLLGSIAGVMAALGYPLPQPLPGTEPTWTPGPARSDFLQKMDDFWLLKELQTWLWRSAKDFNRLKKKMQPPAAAVTLHLGAHGF
notes: Expressed in E. coli from pET28b
On to B1, for which the “EC50 (read off the curve)” value in assay [1] and in assay [4] was about 1 nM in each case. Further, the Kd is 0.869 nM in assay [2], 0.86 nM in assay [3] and about 0.83 nM in assay [5].
